Experimental data as given in patent US20200283478A1 (Genentech, published 2020).
Each block holds one binder with its values, some of them ahead of it. Square brackets hold non-standard residues; d marks the D form. Ends that are not written are not given here. hArg = N=C(N)NCCCC[C@H](N)C(=O)O

Legend:
His-tagged PCSK9Δhelix = biological target: T1, His-tagged PCSK9Δhelix (human, UniProt Q8NBP7 31-152; Q8NBP7 168-692); experiment: TR-FRET competition; His-PCSK9Δhelix, competitor Ab20
T1 construct: Construct M1-Q692 with engineered TEV site, cut by TEV protease; new N-terminus of the catalytic domain is S-A168; also called His-PCSK9Δhelix
T1 sequence (Q8NBP7 31-152, stated change not applied, chain 1 of 2): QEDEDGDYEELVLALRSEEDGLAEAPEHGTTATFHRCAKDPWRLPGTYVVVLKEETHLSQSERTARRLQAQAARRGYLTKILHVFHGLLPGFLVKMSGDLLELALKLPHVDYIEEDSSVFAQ
T1 sequence (Q8NBP7 other isoform, or with tags, fused parts or gaps mutant, chain 2 of 2): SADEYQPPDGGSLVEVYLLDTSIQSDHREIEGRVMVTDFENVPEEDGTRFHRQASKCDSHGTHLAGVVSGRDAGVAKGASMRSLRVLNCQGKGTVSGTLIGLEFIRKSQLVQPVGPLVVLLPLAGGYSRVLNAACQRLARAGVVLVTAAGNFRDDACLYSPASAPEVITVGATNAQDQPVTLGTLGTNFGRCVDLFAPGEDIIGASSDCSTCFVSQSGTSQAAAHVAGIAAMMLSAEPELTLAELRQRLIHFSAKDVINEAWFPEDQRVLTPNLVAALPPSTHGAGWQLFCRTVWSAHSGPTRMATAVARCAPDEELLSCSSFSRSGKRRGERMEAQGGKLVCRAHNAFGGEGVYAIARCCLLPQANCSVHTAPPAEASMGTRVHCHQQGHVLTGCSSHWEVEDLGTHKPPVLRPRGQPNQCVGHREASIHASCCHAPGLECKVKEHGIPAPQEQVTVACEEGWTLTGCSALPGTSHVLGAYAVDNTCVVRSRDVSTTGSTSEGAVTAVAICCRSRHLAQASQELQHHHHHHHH

[1] = biological target: T2, His-tagged, full-length PCSK9 (human, UniProt Q8NBP7 31-692); experiment: TR-FRET competition; His-PCSK9, competitor EGF(A)-Fc
T2 construct: The secreted protein is autocleaved into a prodomain and a catalytic/Cys-rich chain that starts at S153; also called His-PCSK9
T2 sequence (Q8NBP7 other isoform, or with tags, fused parts or gaps limits assumed): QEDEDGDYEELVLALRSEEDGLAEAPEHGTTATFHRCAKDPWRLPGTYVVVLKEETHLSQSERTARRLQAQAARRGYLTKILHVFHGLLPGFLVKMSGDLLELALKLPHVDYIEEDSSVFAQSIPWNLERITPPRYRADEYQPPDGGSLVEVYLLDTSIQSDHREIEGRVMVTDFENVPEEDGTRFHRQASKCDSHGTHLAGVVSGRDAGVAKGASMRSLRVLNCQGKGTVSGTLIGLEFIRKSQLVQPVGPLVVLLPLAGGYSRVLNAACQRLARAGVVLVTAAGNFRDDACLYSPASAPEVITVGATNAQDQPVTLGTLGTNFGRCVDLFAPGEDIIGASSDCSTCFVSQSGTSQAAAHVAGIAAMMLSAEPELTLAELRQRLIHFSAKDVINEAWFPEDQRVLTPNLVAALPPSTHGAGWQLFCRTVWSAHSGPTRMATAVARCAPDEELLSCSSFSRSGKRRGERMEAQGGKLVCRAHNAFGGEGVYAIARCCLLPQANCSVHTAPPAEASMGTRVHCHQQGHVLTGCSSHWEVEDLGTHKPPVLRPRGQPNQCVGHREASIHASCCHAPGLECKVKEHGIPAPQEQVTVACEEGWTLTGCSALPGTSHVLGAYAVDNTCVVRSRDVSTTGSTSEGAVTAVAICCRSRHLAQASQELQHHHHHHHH

B1: Compound 231 (peptide)
peptide: Ac-ESYPGWNLV[hArg]IGLLR-NH2
SMILES: CC[C@H](C)[C@H](NC(=O)[C@H](CCCCNC(=N)N)NC(=O)[C@@H](NC(=O)[C@H](CC(C)C)NC(=O)[C@H](CC(N)=O)NC(=O)[C@H](Cc1c[nH]c2ccccc12)NC(=O)CNC(=O)[C@@H]1CCCN1C(=O)[C@H](Cc1ccc(O)cc1)NC(=O)[C@H](CO)NC(=O)[C@H](CCC(=O)O)NC(C)=O)C(C)C)C(=O)NCC(=O)N[C@@H](CC(C)C)C(=O)N[C@@H](CC(C)C)C(=O)N[C@@H](CCCNC(=N)N)C(N)=O
- IC50 (His-tagged PCSK9Δhelix): 17000 nM
- IC50 [1]: 1600 nM

B2: Compound 227 (peptide)
peptide: Ac-ESFPGWNLV[hArg]IGLLR-NH2
SMILES: CC[C@H](C)[C@H](NC(=O)[C@H](CCCCNC(=N)N)NC(=O)[C@@H](NC(=O)[C@H](CC(C)C)NC(=O)[C@H](CC(N)=O)NC(=O)[C@H](Cc1c[nH]c2ccccc12)NC(=O)CNC(=O)[C@@H]1CCCN1C(=O)[C@H](Cc1ccccc1)NC(=O)[C@H](CO)NC(=O)[C@H](CCC(=O)O)NC(C)=O)C(C)C)C(=O)NCC(=O)N[C@@H](CC(C)C)C(=O)N[C@@H](CC(C)C)C(=O)N[C@@H](CCCNC(=N)N)C(N)=O
- IC50 (His-tagged PCSK9Δhelix): 24000 nM
- IC50 [1]: 2500 nM

Binder: WNLV[hArg]IGLLR (also: further groups not given here, Structure printed only as a drawing) [Compound 218]
- IC50 (His-tagged PCSK9Δhelix): 260 nM
- IC50 [1]: 5000 nM

Binder: WNLV[hArg]IGLLR (also: further groups not given here, Structure printed only as a drawing) [Compound 211]
- IC50 (His-tagged PCSK9Δhelix): 3800 nM
- IC50 [1]: 14000 nM

B4: Compound 228 (peptide)
peptide: Ac-SFAFPGWNLV[hArg]IGLLR-NH2
SMILES: CC[C@H](C)[C@H](NC(=O)[C@H](CCCCNC(=N)N)NC(=O)[C@@H](NC(=O)[C@H](CC(C)C)NC(=O)[C@H](CC(N)=O)NC(=O)[C@H](Cc1c[nH]c2ccccc12)NC(=O)CNC(=O)[C@@H]1CCCN1C(=O)[C@H](Cc1ccccc1)NC(=O)[C@H](C)NC(=O)[C@H](Cc1ccccc1)NC(=O)[C@H](CO)NC(C)=O)C(C)C)C(=O)NCC(=O)N[C@@H](CC(C)C)C(=O)N[C@@H](CC(C)C)C(=O)N[C@@H](CCCNC(=N)N)C(N)=O
- IC50 (His-tagged PCSK9Δhelix): 13000 nM
- IC50 [1]: 1300 nM

Binder: WNLV[hArg]IGLLR (also: further groups not given here, Structure printed only as a drawing) [Compound 206]
- IC50 (His-tagged PCSK9Δhelix): 870 nM
- IC50 [1]: 1800 nM

Binder: WNLV[hArg]IGLLR (also: further groups not given here, Structure printed only as a drawing) [Compound 213]
- IC50 (His-tagged PCSK9Δhelix): 200 nM
- IC50 [1]: 3800 nM

B6: Compound 229 (peptide)
peptide: Ac-MESFPGWNLV[hArg]IGLLR-NH2
SMILES: CC[C@H](C)[C@H](NC(=O)[C@H](CCCCNC(=N)N)NC(=O)[C@@H](NC(=O)[C@H](CC(C)C)NC(=O)[C@H](CC(N)=O)NC(=O)[C@H](Cc1c[nH]c2ccccc12)NC(=O)CNC(=O)[C@@H]1CCCN1C(=O)[C@H](Cc1ccccc1)NC(=O)[C@H](CO)NC(=O)[C@H](CCC(=O)O)NC(=O)[C@H](CCSC)NC(C)=O)C(C)C)C(=O)NCC(=O)N[C@@H](CC(C)C)C(=O)N[C@@H](CC(C)C)C(=O)N[C@@H](CCCNC(=N)N)C(N)=O
- IC50 (His-tagged PCSK9Δhelix): 8100 nM
- IC50 [1]: 810 nM

B7: Compound 233 (peptide)
peptide: Ac-MESFPGWNLK[hArg]IGLLR-NH2
SMILES: CC[C@H](C)[C@H](NC(=O)[C@H](CCCCNC(=N)N)NC(=O)[C@H](CCCCN)NC(=O)[C@H](CC(C)C)NC(=O)[C@H](CC(N)=O)NC(=O)[C@H](Cc1c[nH]c2ccccc12)NC(=O)CNC(=O)[C@@H]1CCCN1C(=O)[C@H](Cc1ccccc1)NC(=O)[C@H](CO)NC(=O)[C@H](CCC(=O)O)NC(=O)[C@H](CCSC)NC(C)=O)C(=O)NCC(=O)N[C@@H](CC(C)C)C(=O)N[C@@H](CC(C)C)C(=O)N[C@@H](CCCNC(=N)N)C(N)=O
- IC50 (His-tagged PCSK9Δhelix): 50000 nM
- IC50 [1]: 3100 nM

Binder: WNLV[hArg]IGLLR (also: further groups not given here, Structure printed only as a drawing) [Compound 214]
- IC50 (His-tagged PCSK9Δhelix): 210 nM
- IC50 [1]: 3000 nM

Binder: WNLV[hArg]IGLLR (also: further groups not given here, Structure printed only as a drawing) [Compound 216]
- IC50 (His-tagged PCSK9Δhelix): 300 nM
- IC50 [1]: 6000 nM

Binder: WNLV[hArg]IGLLR (also: further groups not given here, Structure printed only as a drawing) [Compound 226]
- IC50 (His-tagged PCSK9Δhelix): 350 nM
- IC50 [1]: 6200 nM

Binder: WNLV[hArg]IGLLR (also: further groups not given here, Structure printed only as a drawing) [Compound 215]
- IC50 (His-tagged PCSK9Δhelix): 480 nM
- IC50 [1]: 7000 nM

Binder: WNLV[hArg]IGLLR (also: further groups not given here, Structure printed only as a drawing) [Compound 207]
- IC50 (His-tagged PCSK9Δhelix): 320 nM
- IC50 [1]: 1300 nM

Binder: WNLV[hArg]IGLLR (also: end groups and other groups only in drawing, Structure printed only as a drawing) [Compound 205]
- IC50 (His-tagged PCSK9Δhelix): 640 nM
- IC50 [1]: 2800 nM

Further binders by falling IC50 (His-tagged PCSK9Δhelix), results first:

- IC50 (His-tagged PCSK9Δhelix): 24000 nM
- IC50 [1]: 2300 nM
B3: Compound 230 (peptide)
peptide: Ac-DSYPGWNLV[hArg]IGLLR-NH2
SMILES: CC[C@H](C)[C@H](NC(=O)[C@H](CCCCNC(=N)N)NC(=O)[C@@H](NC(=O)[C@H](CC(C)C)NC(=O)[C@H](CC(N)=O)NC(=O)[C@H](Cc1c[nH]c2ccccc12)NC(=O)CNC(=O)[C@@H]1CCCN1C(=O)[C@H](Cc1ccc(O)cc1)NC(=O)[C@H](CO)NC(=O)[C@H](CC(=O)O)NC(C)=O)C(C)C)C(=O)NCC(=O)N[C@@H](CC(C)C)C(=O)N[C@@H](CC(C)C)C(=O)N[C@@H](CCCNC(=N)N)C(N)=O

- IC50 (His-tagged PCSK9Δhelix): 13000 nM
- IC50 [1]: 930 nM
B5: Compound 232 (peptide)
peptide: Ac-SFAFPGWNLK[hArg]IGLLR-NH2
SMILES: CC[C@H](C)[C@H](NC(=O)[C@H](CCCCNC(=N)N)NC(=O)[C@H](CCCCN)NC(=O)[C@H](CC(C)C)NC(=O)[C@H](CC(N)=O)NC(=O)[C@H](Cc1c[nH]c2ccccc12)NC(=O)CNC(=O)[C@@H]1CCCN1C(=O)[C@H](Cc1ccccc1)NC(=O)[C@H](C)NC(=O)[C@H](Cc1ccccc1)NC(=O)[C@H](CO)NC(C)=O)C(=O)NCC(=O)N[C@@H](CC(C)C)C(=O)N[C@@H](CC(C)C)C(=O)N[C@@H](CCCNC(=N)N)C(N)=O

- IC50 (His-tagged PCSK9Δhelix): 1800 nM
- IC50 [1]: 27000 nM
Binder: WNLV[hArg]IGLLR (also: further groups not given here, Structure printed only as a drawing) [Compound 225]

- IC50 (His-tagged PCSK9Δhelix): 1600 nM
- IC50 [1]: 15000 nM
Binder: WNLV[hArg]IGLLR (also: further groups not given here, Structure printed only as a drawing) [Compound 212]

- IC50 (His-tagged PCSK9Δhelix): 1400 nM
- IC50 [1]: 21000 nM
Binder: WNLV[hArg]IGLLR (also: further groups not given here, Structure printed only as a drawing) [Compound 222]

- IC50 (His-tagged PCSK9Δhelix): 1400 nM
- IC50 [1]: 21000 nM
Binder: WNLV[hArg]IGLLR (also: further groups not given here, Structure printed only as a drawing) [Compound 223]

- IC50 (His-tagged PCSK9Δhelix): 910 nM
- IC50 [1]: 37000 nM
Binder: WNLV[hArg]IGLLR (also: further groups not given here, Structure printed only as a drawing) [Compound 220]

- IC50 (His-tagged PCSK9Δhelix): 870 nM
- IC50 [1]: 3600 nM
Binder: WNLV[hArg]IGLLR (also: further groups not given here, Structure printed only as a drawing) [Compound 204]

- IC50 (His-tagged PCSK9Δhelix): 840 nM
- IC50 [1]: 3000 nM
Binder: WNLV[hArg]IGLLR (also: further groups not given here, Structure printed only as a drawing) [Compound 210]

- IC50 (His-tagged PCSK9Δhelix): 680 nM
- IC50 [1]: 9900 nM
Binder: WNLV[hArg]IGLLR (also: further groups not given here, Structure printed only as a drawing) [Compound 219]

- IC50 (His-tagged PCSK9Δhelix): 650 nM
- IC50 [1]: 9500 nM
Binder: WNLV[hArg]IGLLR (also: further groups not given here, Structure printed only as a drawing) [Compound 221]

- IC50 (His-tagged PCSK9Δhelix): 530 nM
- IC50 [1]: 7000 nM
Binder: WNLV[hArg]IGLLR (also: further groups not given here, Structure printed only as a drawing) [Compound 224]

- IC50 (His-tagged PCSK9Δhelix): 450 nM
- IC50 [1]: 2900 nM
Binder: WNLV[hArg]IGLLR (also: further groups not given here, Structure printed only as a drawing) [Compound 209]

- IC50 (His-tagged PCSK9Δhelix): 390 nM
- IC50 [1]: 4100 nM
Binder: WNLV[hArg]IGLLR (also: further groups not given here, Structure printed only as a drawing) [Compound 217]

- IC50 (His-tagged PCSK9Δhelix): 100 nM
- IC50 [1]: 450 nM
Binder: WNLV[hArg]IGLLR (also: further groups not given here, Structure printed only as a drawing) [Compound 208]
